Residue numbers refer to the chain shown, from its start. Names may count otherwise.
B1: Y12XX-hz29 (antibody, human IgG1, kappa, V domains shown)
VH: QVQLVQSGAEVKKPGSSVKVSCKASGYAFTSYWMHWVRQAPGQGLEWMGFINPTTGYSEYNQKFKDRVTITADKSTSTAYMELSSLRSEDTAVYYCARWGLPPFAYWGQGTLVTVSS
VL: EIVMTQSPATLSVSPGERATLSCKASQDVSTAVAWYQQKPGQAPRLLIYSASYRYTGIPARFSGSGSGTEFTLTISSLQSEDFAVYYCQQHYSTPWTFGGGTKVEIKR
notes: Humanized, IgG1-P238K; supernatant sample
B2: Y12XX-hz34 (antibody, human IgG1, kappa, V domains shown)
VH: QVQLVQSGAEVKKPGSSVKVSCKASGYAFTSYWMHWVRQRPGQGLEWIGYINPTTGYSAYNQKFKDKATLTADKSTSTAYMELNSLRSEDTAVYYCARWDPRPFAYWGQGTLVTVSS
VL: B1 VL
notes: as for B1
B3: Y12XX-hz18 (antibody, human IgG1, kappa, V domains shown)
VH: B2 VH with R40A, I48M, N84S
VL: DIQMTQSPSFLSASVGDRVTITCKASQDVSTAVAWYQQKPGKAPKLLIYSASYRYTGVPSRFSGSGSGTDFTLTISSLQPEDFATYYCQQHYSTPWTFGGGTKVEIKR
notes: as for B1
B4: Y12XX-hz19 (antibody, human IgG1, kappa, V domains shown)
VH: B2 VH with I48M, N84S
VL: B3 VL
notes: as for B1
B5: Y12XX-hz22 (antibody, human IgG1, kappa, V domains shown)
VH: B2 VH with R40A, I48M, N84S, P101A
VL: B3 VL
notes: as for B1
B6: Y12XX-hz33 (antibody, human IgG1, kappa, V domains shown)
VH: B2 VH with I48M, N84S
VL: B1 VL
notes: as for B1
B7: Y12XX-hz39 (antibody, human IgG1, kappa, V domains shown)
VH: B1 VH with A40R, M48I, F50Q, T54S, T55N, Y57R, E59Q, Q62E, D66T, P102Q
VL: B1 VL
notes: as for B1
B8: Y12XX-hz38 (antibody, human IgG1, kappa, V domains shown)
VH: B1 VH with A40R, F50Q, T54S, T55N, Y57R, E59Q, Q62E, D66T, P102Q
VL: B1 VL
notes: as for B1
B9: Y12XX-hz32 (antibody, human IgG1, kappa, V domains shown)
VH: B2 VH with R40A, I48M, N84S
VL: B1 VL
notes: as for B1
B10: Y12XX-hz30 (antibody, human IgG1, kappa, V domains shown)
VH: B1 VH with A40R
VL: B1 VL
notes: as for B1
B11: Y12XX-hz36 (antibody, human IgG1, kappa, V domains shown)
VH: B2 VH with R40A, I48M, N84S, P101A
VL: B1 VL
notes: as for B1
B12: Y12XX-hz37 (antibody, human IgG1, kappa, V domains shown)
VH: B1 VH with F50Q, T54S, T55N, Y57R, E59Q, Q62E, D66T, P102Q
VL: B1 VL
notes: as for B1
B13: Y12XX-hz31 (antibody, human IgG1, kappa, V domains shown)
VH: B1 VH with A40R, M48I, S84N
VL: B1 VL
notes: as for B1
B14: Y12XX-hz41 (antibody, human IgG1, kappa, V domains shown)
VH: B1 VH with F50Q, T54S, T55N, G56A, Y57R, E59Q, Q62E, D66T, P102Q
VL: B1 VL
notes: as for B1
B15: Y1258 (antibody, human IgG1, kappa)
heavy: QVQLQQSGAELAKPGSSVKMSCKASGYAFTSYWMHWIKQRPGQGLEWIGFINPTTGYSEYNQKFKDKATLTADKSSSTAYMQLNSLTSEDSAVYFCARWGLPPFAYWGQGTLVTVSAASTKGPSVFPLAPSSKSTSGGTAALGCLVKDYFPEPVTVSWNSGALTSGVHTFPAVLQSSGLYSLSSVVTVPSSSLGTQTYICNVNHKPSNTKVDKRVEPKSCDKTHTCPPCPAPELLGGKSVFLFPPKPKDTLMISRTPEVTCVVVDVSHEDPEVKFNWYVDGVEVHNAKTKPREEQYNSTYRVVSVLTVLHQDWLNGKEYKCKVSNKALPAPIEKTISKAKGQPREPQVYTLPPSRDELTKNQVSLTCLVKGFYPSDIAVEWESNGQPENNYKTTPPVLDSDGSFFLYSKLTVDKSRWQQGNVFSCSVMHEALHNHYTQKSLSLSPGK
light: DIVMTQSHKFMSTSVGDRVSITCKASQDVSTAVAWYQQKPGQSPKLLIYSASYRYTGVPDRFTGSGSGTDFTFTISSVQAEDLAVYYCQQHYSTPWTFGGGTKLEIKRTVAAPSVFIFPPSDEQLKSGTASVVCLLNNFYPREAKVQWKVDNALQSGNSQESVTEQDSKDSTYSLSSTLTLSKADYEKHKVYACEVTHQGLSSPVTKSFNRGEC
notes: Chimeric, mouse variable and human constant regions; supernatant sample; also called chimeric Y1258
B16: Y1262 (antibody, human IgG1, kappa)
heavy: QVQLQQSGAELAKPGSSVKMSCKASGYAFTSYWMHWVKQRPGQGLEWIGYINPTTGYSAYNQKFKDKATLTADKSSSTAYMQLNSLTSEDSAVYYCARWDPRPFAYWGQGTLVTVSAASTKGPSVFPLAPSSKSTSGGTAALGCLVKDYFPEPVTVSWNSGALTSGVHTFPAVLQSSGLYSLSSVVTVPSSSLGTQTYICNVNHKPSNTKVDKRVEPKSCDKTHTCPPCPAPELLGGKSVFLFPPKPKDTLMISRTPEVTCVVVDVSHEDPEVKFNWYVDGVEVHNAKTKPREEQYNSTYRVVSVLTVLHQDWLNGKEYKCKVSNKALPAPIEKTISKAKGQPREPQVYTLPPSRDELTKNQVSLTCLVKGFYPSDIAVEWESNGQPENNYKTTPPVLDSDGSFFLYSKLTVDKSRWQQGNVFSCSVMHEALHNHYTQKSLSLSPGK
light: B15 light with S67Y
notes: Chimeric, mouse variable and human constant regions; supernatant sample; also called chimeric Y1262; Chim
B17: ADX_Y1258.ZZ0-1 (antibody, V domains shown)
VH: QVQLQQSGAELAKPGSSVKMSCKASGYAFTSYWMHWIKQRPGQGLEWIGFINPTTGYSEYNQKFKDKATLTADKSSSTAYMQLNSLTSEDSAVYFCARWGLPPFAYWGQGTLVTVSA
VL: DIVMTQSHKFMSTSVGDRVSITCKASQDVSTAVAWYQQKPGQSPKLLIYSASYRYTGVPDRFTGSGSGTDFTFTISSVQAEDLAVYYCQQHYSTPWTFGGGTKLEIK
notes: Mouse anti-human-CD40 antibody
B18: ADX_Y1267.ZZ0-1 (antibody, V domains shown)
VH: QVQLQQPGAELVKPGASVRLSCEASGYSFTSYWMHWVKQRPGQGLEWIGQINPSNGRTQYNEKFKSMATLTVDKSSSTAYIQLNSLTSEDSAVYYCARWGLQPFAYWGQGTLVTVSA
VL: B17 VL with Q89L, S93T
notes: as for B17
B19: ADX_Y1238.ZZ0-1 (antibody, V domains shown)
VH: QVQLQQSGAELVRPGTSVKVSCKASGYAFTNYLIEWVKQRPGQGLEWIGVINPGSGGTNYNEKFKGKATLTADKSSSTAYMQLSSLTSDDSAVYFCARSQLGRRFDYWGQGTTLTVSS
VL: B17 VL with S30R, A32G, Y55N, G66R, T94P, W96Y
notes: as for B17
B20: ADX_Y1264.ZZ0-1 (antibody, V domains shown)
VH: EVQLQQSGTVLARPGASVKMSCRASGYSFSSYWMHWVKQRPGQGLEWIGSINPGNSDAFYNQQFKGKAKLTAVTSASTAYMELSSLTNEDSAVYYCTRWGLPPFAYWGQGTLVTVSA
VL: B17 VL with Q89H
notes: as for B17
B21: ADX_Y1268.ZZ0-1 (antibody, V domains shown)
VH: B18 VH with E23K, S28A, T58S, S66T, N84S
VL: B17 VL
notes: as for B17
B22: ADX_Y1260.ZZ0-1 (antibody, V domains shown)
VH: QVQLQQSGAELTKPGASVKMSCKASGYSFTSYWMHWVKQRPGQGLEWIGSINPSTGYTEDNQKFKDKATLTADKSSTTAYMQLSSLTSEDSAVYYCARWGLPPFAYWGQGTLVTVSA
VL: B17 VL
notes: as for B17
B23: ADX_Y1262.ZZ0-1 (antibody, V domains shown)
VH: B17 VH with I37V, F50Y, E59A, F95Y, G100D, L101P, P102R
VL: B17 VL with S67Y
notes: as for B17
B24: Y12XX-hz6 (antibody, human IgG1, kappa, V domains shown)
VH: B2 VH
VL: B3 VL with F10S, L73F, F83I
notes: as for B1
B25: Y12XX-hz20 (antibody, human IgG1, kappa, V domains shown)
VH: B2 VH
VL: B3 VL
notes: as for B1
B26: ADX_Y1072.ZZ0-1 (antibody, V domains shown)
VH: QVQFQQSGAELARPGASVKLSCKASGYTFTSYWMQWVKQRPGQGLEWIGTIYPGDGDSRYNQKFKGKALLTADKSSSIAYMQLNSLASEDSAVYFCARFSLYDGYPYYFDYWGQGTTLTVSS
VL: DVVMTQTPLSLPVSLGDQASISCRSSQSLVHRNGNTYLHWYLQKPGQSPKLLIYRVSNRFSGVPDRFSGSGSGTDFTLKISRVEAEDLGIYFCSQSTHFPYTFGGGTKLEIK
notes: as for B17

Tests used:
[1] = biological target: T1, human-CD40-monomer protein (human, UniProt P25942 21-193, limits assumed); assay: SPR, Ab captured on protein A, hCD40 monomer 500 and 50 nM, 1:1 fit; supernatant
T1 construct: Soluble monomer generated in house, used as SPR analyte; also called hCD40; hCD40-monomer
Procedure: Titer analysis was performed using Biolayer Interferometry (BLI) on an Octet RED instrument (Fortebio) by capturing antibodies from supernatant using protein A sensor tips and measuring capture response with respect to a standard curve obtained using a control antibody sample. SPR data were obtained by capturing antibodies on a protein A surface and testing the binding of 500 nM and 50 nM injections of human-CD40 analyte, using a BIAcore™ T200 instrument (GE Healthcare). The kinetic data for the two concentrations of hCD40-monomer were fit to a 1:1 Langmuir model, to yield estimates of the kinetic and affinity values for these interactions, and for comparison of the different molecules.

[2] = biological target: T1, human-CD40-monomer protein; assay: SPR, Ab captured on protein A, 1 uM hCD40 monomer, single concentration, apparent value
Procedure: The CD40 kinetic and affinity data for human-CD40 monomer binding to mouse anti-human CD40 antibodies captured on a protein A sensor chip surface were assessed by SPR. The data shown are for a single concentration of CD40 analyte (1 μM) and are therefore reported as apparent (app) values.

T1 sequence (P25942 21-193 limits assumed): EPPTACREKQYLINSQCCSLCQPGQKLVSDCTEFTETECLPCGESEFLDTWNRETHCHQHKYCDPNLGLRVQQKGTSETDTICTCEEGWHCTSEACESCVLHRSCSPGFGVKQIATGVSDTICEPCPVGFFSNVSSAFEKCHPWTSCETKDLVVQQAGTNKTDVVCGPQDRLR

| Binder | Kd [1] [nM] | koff [1] [s⁻¹] | kon [1] [M⁻¹ s⁻¹] | Kd [2] [nM] | koff [2] [s⁻¹] | kon [2] [M⁻¹ s⁻¹] |
| --- | --- | --- | --- | --- | --- | --- |
| B1 | 0.069 | 2.6e-06 | 37000 | – | – | – |
| B2 | 7.6 | 0.0028 | 370000 | – | – | – |
| B3 | 7.1 | 0.0024 | 350000 | – | – | – |
| B4 | 6.2 | 0.0023 | 380000 | – | – | – |
| B5 | 210 | 0.079 | 370000 | – | – | – |
| B6 | 11 | 0.0033 | 290000 | – | – | – |
| B7 | 3.5 | 0.00084 | 240000 | – | – | – |
| B8 | 3.6 | 0.00088 | 250000 | – | – | – |
| B9 | 10 | 0.003 | 290000 | – | – | – |
| B10 | 0.018 | 7.3e-07 | 41000 | – | – | – |
| B11 | 250 | 0.1 | 390000 | – | – | – |
| B12 | 3.3 | 0.00084 | 260000 | – | – | – |
| B13 | 0.007 | 2.9e-07 | 41000 | – | – | – |
| B14 | 3.8 | 0.00094 | 250000 | – | – | – |
| B15 | 0.067 | 3.8e-06 | 56000 | – | – | – |
| B16 | 8 | 0.0028 | 350000 | – | – | – |
| B17 | – | – | – | 7.9 | 0.00013 | 17000 |
| B18 | – | – | – | 1.1 | 0.00041 | 370000 |
| B19 | – | – | – | 2.2 | 0.00012 | 55000 |
| B20 | – | – | – | 17 | 0.00023 | 14000 |
| B21 | – | – | – | 1.4 | 0.00046 | 320000 |
| B22 | – | – | – | 4 | 0.00021 | 52000 |
| B23 | – | – | – | 6.6 | 0.0025 | 370000 |
| B24 | 6.4 | 0.0024 | 380000 | – | – | – |
| B25 | 8.2 | 0.0025 | 310000 | – | – | – |
| B26 | – | – | – | 120 | 0.0092 | 77000 |

Reference: US20240124597A1 (Bristol-Myers Squibb, published 2024)
